# In the Human Domainome abundance scans (Beltran et al. 2025):
# ± gives the uncertainty stated by the source.
# B1: RNA-binding E3 ubiquitin-protein ligase MEX3C, residues 325 to 391; numbered along this chain, Q5U5Q3 (parent)
# chain: GQTTVQVRVPYRVVGLVVGPKGATIKRIQQQTHTYIVTPSRDKEPVFEVTGMPENVDRAREEIEMHI
# Variants of: B1
# Experiment: abundance fitness (aPCA) (normalised: wild type 0, dead -1); higher = more abundant; growth selection in yeast, the domain comes from the species named
# Settings: Homo sapiens
row,Variant,abundance fitness
1,GQTTVQVRVPYRVVGLVVGPNGATIKRIQQQTHTYIVTPSRDKEPVFEVTGMPENVDRAREEIEMHI [K21N],-0.113 ± 0.12
2,GQTTVQVRVPYRVVGLVVGPTGATIKRIQQQTHTYIVTPSRDKEPVFEVTGMPENVDRAREEIEMHI [K21T],-0.596 ± 0.14
3,GQTTVQVRVPYRVVGLVVGPEGATIKRIQQQTHTYIVTPSRDKEPVFEVTGMPENVDRAREEIEMHI [K21E],-0.099 ± 0.068
4,GQTTVQVRVPYRVVGLVVGPSGATIKRIQQQTHTYIVTPSRDKEPVFEVTGMPENVDRAREEIEMHI [K21S],-0.233 ± 0.07
5,GQTTVQVRVPYRVVGLVVGPRGATIKRIQQQTHTYIVTPSRDKEPVFEVTGMPENVDRAREEIEMHI [K21R],-0.196 ± 0.05
6,GQTTVQVRVPYRVVGLVVGPDGATIKRIQQQTHTYIVTPSRDKEPVFEVTGMPENVDRAREEIEMHI [K21D],-0.19 ± 0.1
7,GQTTVQVRVPYRVVGLVVGPHGATIKRIQQQTHTYIVTPSRDKEPVFEVTGMPENVDRAREEIEMHI [K21H],-0.273 ± 0.13
8,GQTTVQVRVPYRVVGLVVGPWGATIKRIQQQTHTYIVTPSRDKEPVFEVTGMPENVDRAREEIEMHI [K21W],-0.458 ± 0.093
9,GQTTVQVRVPYRVVGLVVGPPGATIKRIQQQTHTYIVTPSRDKEPVFEVTGMPENVDRAREEIEMHI [K21P],-0.884 ± 0.22
10,GQTTVQVRVPYRVVGLVVGPMGATIKRIQQQTHTYIVTPSRDKEPVFEVTGMPENVDRAREEIEMHI [K21M],-0.031 ± 0.076
11,GQTTVQVRVPYRVVGLVVGPAGATIKRIQQQTHTYIVTPSRDKEPVFEVTGMPENVDRAREEIEMHI [K21A],-0.186 ± 0.063
12,GQTTVQVRVPYRVVGLVVGPGGATIKRIQQQTHTYIVTPSRDKEPVFEVTGMPENVDRAREEIEMHI [K21G],-0.04 ± 0.046
13,GQTTVQVRVPYRVVGLVVGPIGATIKRIQQQTHTYIVTPSRDKEPVFEVTGMPENVDRAREEIEMHI [K21I],-0.53 ± 0.22
14,GQTTVQVRVPYRVVGLVVGPLGATIKRIQQQTHTYIVTPSRDKEPVFEVTGMPENVDRAREEIEMHI [K21L],-0.183 ± 0.061
15,GQTTVQVRVPYRVVGLVVGPCGATIKRIQQQTHTYIVTPSRDKEPVFEVTGMPENVDRAREEIEMHI [K21C],-0.247 ± 0.15
16,GQTTVQVRVPYRVVGLSVGPKGATIKRIQQQTHTYIVTPSRDKEPVFEVTGMPENVDRAREEIEMHI [V17S],-0.872 ± 0.11
17,GQTTVQVRVPYRVVGLTVGPKGATIKRIQQQTHTYIVTPSRDKEPVFEVTGMPENVDRAREEIEMHI [V17T],-0.524 ± 0.098
18,GQTTVQVRVPYRVVGLYVGPKGATIKRIQQQTHTYIVTPSRDKEPVFEVTGMPENVDRAREEIEMHI [V17Y],-0.505 ± 0.11
19,GQTTVQVRVPYRVVGLKVGPKGATIKRIQQQTHTYIVTPSRDKEPVFEVTGMPENVDRAREEIEMHI [V17K],-0.533 ± 0.12
20,GQTTVQVRVPYRVVGLRVGPKGATIKRIQQQTHTYIVTPSRDKEPVFEVTGMPENVDRAREEIEMHI [V17R],-0.751 ± 0.082

row,Variant,abundance fitness
1,GQTTVQVRVPYRVVGLWVGPKGATIKRIQQQTHTYIVTPSRDKEPVFEVTGMPENVDRAREEIEMHI [V17W],-0.635 ± 0.084
2,GQTTVQVRVPYRVVGLQVGPKGATIKRIQQQTHTYIVTPSRDKEPVFEVTGMPENVDRAREEIEMHI [V17Q],-0.529 ± 0.17
3,GQTTVQVRVPYRVVGLMVGPKGATIKRIQQQTHTYIVTPSRDKEPVFEVTGMPENVDRAREEIEMHI [V17M],-0.741 ± 0.17
4,GQTTVQVRVPYRVVGLLVGPKGATIKRIQQQTHTYIVTPSRDKEPVFEVTGMPENVDRAREEIEMHI [V17L],-0.415 ± 0.076
5,GQTTVQVRVPYRVVGLVVDPKGATIKRIQQQTHTYIVTPSRDKEPVFEVTGMPENVDRAREEIEMHI [G19D],-0.716 ± 0.15
6,GQTTVQVRVPYRVVGLVVEPKGATIKRIQQQTHTYIVTPSRDKEPVFEVTGMPENVDRAREEIEMHI [G19E],-0.897 ± 0.12
7,GQTTVQVRVPYRVVGLVVTPKGATIKRIQQQTHTYIVTPSRDKEPVFEVTGMPENVDRAREEIEMHI [G19T],-0.822 ± 0.13
8,GQTTVQVRVPYRVVGLVVKPKGATIKRIQQQTHTYIVTPSRDKEPVFEVTGMPENVDRAREEIEMHI [G19K],-0.785 ± 0.14
9,GQTTVQVRVPYRVVGLVVNPKGATIKRIQQQTHTYIVTPSRDKEPVFEVTGMPENVDRAREEIEMHI [G19N],-0.64 ± 0.31
10,GQTTVQVRVPYRVVGLVVCPKGATIKRIQQQTHTYIVTPSRDKEPVFEVTGMPENVDRAREEIEMHI [G19C],-0.844 ± 0.16
11,GQTTVQVRVPYRVVGLVVRPKGATIKRIQQQTHTYIVTPSRDKEPVFEVTGMPENVDRAREEIEMHI [G19R],-0.739 ± 0.069
12,GQTTVQVRVPYRVVGLVVWPKGATIKRIQQQTHTYIVTPSRDKEPVFEVTGMPENVDRAREEIEMHI [G19W],-0.848 ± 0.13
13,GQTTVQVRVPYRVVGLVVIPKGATIKRIQQQTHTYIVTPSRDKEPVFEVTGMPENVDRAREEIEMHI [G19I],-1.08 ± 0.49
14,GQTTVQVRVPYRVVGLVVQPKGATIKRIQQQTHTYIVTPSRDKEPVFEVTGMPENVDRAREEIEMHI [G19Q],-0.623 ± 0.17
15,GQTTVQVRVPYRVVGLVVMPKGATIKRIQQQTHTYIVTPSRDKEPVFEVTGMPENVDRAREEIEMHI [G19M],-1.03 ± 0.3
16,GQTTVQVRVPYRVVGLVVYPKGATIKRIQQQTHTYIVTPSRDKEPVFEVTGMPENVDRAREEIEMHI [G19Y],-0.159 ± 0.2
17,GQTTVQVRVPYRVVGLVVHPKGATIKRIQQQTHTYIVTPSRDKEPVFEVTGMPENVDRAREEIEMHI [G19H],-0.694 ± 0.24
18,GQTTVQVRVPYRVVGLVVLPKGATIKRIQQQTHTYIVTPSRDKEPVFEVTGMPENVDRAREEIEMHI [G19L],-0.951 ± 0.13
19,GQTTVQVRVPYRVVGLVVAPKGATIKRIQQQTHTYIVTPSRDKEPVFEVTGMPENVDRAREEIEMHI [G19A],-0.86 ± 0.16
20,GQTTVQVRVPYRVVGLVVPPKGATIKRIQQQTHTYIVTPSRDKEPVFEVTGMPENVDRAREEIEMHI [G19P],-0.824 ± 0.16
